Reference: patent publication US20250145697A1 (WASHINGTON UNIVERSITY, published 2025)

What was measured:
murine ApoE = molecular target: T1, murine ApoE (mouse, UniProt P08226 19-311); experiment: Western blot of mouse brain lysates
T1 sequence (looked up): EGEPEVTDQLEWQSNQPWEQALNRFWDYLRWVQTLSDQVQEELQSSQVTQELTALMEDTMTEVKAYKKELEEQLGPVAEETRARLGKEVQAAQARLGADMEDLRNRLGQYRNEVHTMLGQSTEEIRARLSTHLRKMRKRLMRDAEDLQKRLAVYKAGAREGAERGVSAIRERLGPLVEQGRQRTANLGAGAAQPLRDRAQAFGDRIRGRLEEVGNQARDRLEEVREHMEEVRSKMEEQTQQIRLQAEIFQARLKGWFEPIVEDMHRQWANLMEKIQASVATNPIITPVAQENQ
Description: Brain lysates from apoE KO mice or mice expressing human apoE3, human apoE4 or murine apoE were immunoblotted with HJ151, HJ152, HJ153, and HJ154. A commercial apoE antibody GA-50 was used as a positive control.

[1] = molecular target: T2, recombinant alipidated human ApoE4 (human, UniProt P02649 19-317); experiment: direct ELISA on coated recombinant alipidated ApoE (0.5 ug/ml)
T2 construct: mature; full length recombinant protein made in E. coli or bought; biotinylated for SPR; position 112 is counted on the mature protein, not on the precursor entry; also called recApoE; non-lipidated ApoE4
T2 sequence (P02649 19-317 C130R): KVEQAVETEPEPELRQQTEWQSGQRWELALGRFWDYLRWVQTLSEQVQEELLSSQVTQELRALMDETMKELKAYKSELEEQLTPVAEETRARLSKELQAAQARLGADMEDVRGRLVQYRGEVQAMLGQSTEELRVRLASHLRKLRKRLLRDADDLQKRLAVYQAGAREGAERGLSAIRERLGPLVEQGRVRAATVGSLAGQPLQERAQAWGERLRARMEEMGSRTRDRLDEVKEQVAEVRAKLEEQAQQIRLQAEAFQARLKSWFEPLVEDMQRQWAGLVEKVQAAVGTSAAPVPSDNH
Experimental: (§1) ELISA dose response curves were generated for several anti-ApoE antibodies. Briefly, plates were coated overnight with full length recombinant alipidated ApoE2, ApoE3, or ApoE4 (0.5 μg/ml). The following days, plates were washed, blocked and then incubated with an anti-ApoE antibody. A goat, anti-mouse IgG-HRP antibody was used for secondary detection. Recombinant alipidated ApoE was either expressed solubly in E. coli and then purified, or purchased from a commercial supplier.

[2] = molecular target: T3, recombinant alipidated human ApoE3 (human, UniProt P02649 19-317); experiment: as above
T3 construct: mature; full length recombinant protein made in E. coli or bought
T3 sequence (P02649 19-317): as the sequence (P02649 19-317 C130R) above, with R112C counted along it
Experimental: as §1

[3] = molecular target: T4, recombinant alipidated human ApoE2 (human, UniProt P02649 19-317); experiment: as above
T4 construct: mature; full length recombinant protein made in E. coli or bought
T4 sequence (P02649 19-317 R176C): as the sequence (P02649 19-317 C130R) above, with R112C, R158C counted along it
Experimental: as §1

[4] = molecular target: T2, recombinant alipidated human ApoE4; experiment: ELISA: untreated recombinant ApoE4 on the plate, antibody titrated, OD650
Experimental: (§2) 1: untreated ApoE4. 2: ApoE4 that has been incubated at 40° C. for 24 hr. Supernatant(S) and pellet (P) from ultracentrifugation were resolved on SDS-PAGE and stained by Coomassie blue. (D) Binding of HJ156 to different preparations of ApoE4 loaded at the same concentration on the ELISA plate. Sup of untreated: Supernatant fraction of untreated ApoE4 from ultracentrifugation. Sup/Pel of 24h 40C: Supernatant/pellet fraction of ApoE4 incubated at 40° C. for 24 hour. (E) Binding of HJ156 to untreated and 40° C. incubated ApoE4 with and without denaturation by 1% SDS or 4M guanidine HCl.
(§3) In order to test whether HJ151 and HJ156 bind to some form of ApoE in the brain, unfixed frozen brain sections from APPPS1/APOE4 or APPPS1/EKO mice using HJ151 and HJ156 (FIG. 38A). The presence of Aβ plaques was confirmed with Aβ immunostaining using anti-Aβ antibody HJ3.4 on the sections from the same brain. […] Next, the ability of HJ156 to bind to an aggregated form of ApoE induced by incubation at 40° C. was queried. The binding of untreated ApoE to HJ151, HJ153 or HJ156 was compared to the binding of ApoE incubated at 40° C. to HJ151, HJ153 or HJ156. HJ153 bound to untreated ApoE or ApoE incubated at 40° C. similarly while HJ151 and HJ156 preferentially bound to ApoE incubated at 40° C. (FIG. 38B). […] Solubilization of the ApoE aggregates reduced their binding to HJ156. […]

[5] = molecular target: T5, heat-induced aggregates of ApoE4 (human, UniProt P02649 19-317); experiment: ELISA: ApoE4 incubated at 40 C for 24 hr on the plate, antibody titrated, OD650
T5 construct: mature; aggregated state of the recombinant protein; also called ApoE4 incubated at 40 C for 24 hr; heat-treated ApoE4
T5 sequence (P02649 19-317 C130R): as the sequence (P02649 19-317 C130R) above
Experimental: as §2, §3

[6] = molecular target: T2, recombinant alipidated human ApoE4; experiment: SPR, biotinylated recombinant apoE4 captured on a streptavidin chip; column Kd (1/s)
Experimental: (§4) ELISA plates were coated with 0.5 μg/ml of recombinant apoE2 (square), apoE3 (open circle), or apoE4 (closed circle). Then different concentrations of (A) HJ151, (B) HJ153, (C) HJ154, or (D) HJ156 were loaded on the plates. Horse-radish peroxidase labeled goat anti-mouse secondary antibodies were used to detect binding. […] HJ151 is specific for ApoE4 and HJ156 binds only ApoE3 and ApoE4. FIG. 5E-H are graphs depicting surface plasmon resonance profiles for various antibodies. Anti-ApoE antibodies were serially diluted 3-fold (starting at 100 nM for HJ153 (E), and 1000 nM for HJ151 (F), and […] (G)) for detection of binding to biotinylated-recombinant apoE4 captured on a streptavidin chip. Samples were injected at a flow rate of 30 μl/minute. (H) Apparent KD values of HJ151, HJ153 and HJ156 were calculated based on the SPR experiment.
(§5) ELISA plates were coated with 0.5 μg/ml of recombinant apoE2, apoE3, or apoE4. Then different concentrations of HJ151 (FIG. 5A), HJ153 (FIG. 5B), HJ154 (FIG. 5C), or HJ156 (FIG. 5D) were loaded on the plates. Horse-radish peroxidase labeled goat anti-mouse secondary antibodies were used to detect binding. […] HJ151 is specific for ApoE4 and HJ156 binds only ApoE3 and ApoE4. Surface plasmon resonance profiles for various antibodies was also performed.

[7] = molecular target: T2, recombinant alipidated human ApoE4; experiment: SPR, biotinylated recombinant apoE4 captured on a streptavidin chip; column Ka (1/Ms)
Experimental: as §4, §5

[8] = molecular target: T2, recombinant alipidated human ApoE4; experiment: SPR, biotinylated recombinant apoE4 captured on a streptavidin chip; column Apparent KD (M)
Experimental: as §4, §5

[9] = molecular target: T2, recombinant alipidated human ApoE4; experiment: SPR (Biacore T200), biotinylated ApoE4 captured on anti-biotin mAb chip, antibody injected, 1:1 fit
Experimental: The affinity of several anti-ApoE antibodies for ApoE4 was determined by surface plasmon resonance using a BIAcore T200. Anti-biotin monoclonal mouse antibody was immobilized on a Biacore Series S CM5 sensor chip. Biotinylated recombinant alipidated ApoE4 was then captured on to the chip. Serial dilutions of each antibody were injected at a flow rate of 30 μl/min. Each sample was analyzed, for example, with 3-minute association and 10-minute dissociation. After each injection the chip was regenerated using 3 M MgCl₂ or another appropriate buffer. Binding response was corrected by subtracting the response units (RUs) from a flow cell capturing an irrelevant IgG at similar density. A 1:1 Languir model of simultaneous fitting of Kₒₙ and Koff was used for kinetics analysis. Recombinant alipidated ApoE4 was either expressed in soluble form in E. coli and then purified, or purchased from a commercial supplier.

- binding result (murine ApoE): no binding
- EC50 [1]: 0.03 nM
- EC50 [2]: 0.02 nM
- EC50 [3]: 0.02 nM
- EC50 (read off the curve) [4]: ~0.3 nM
- EC50 (read off the curve) [5]: ~0.2 nM
- koff [6]: 0.000211 s⁻¹
- kon [7]: 662000 M⁻¹ s⁻¹
- Kd [8]: 0.319 nM
- Kd [9]: 0.43 nM
- koff [9]: 0.000346 s⁻¹
- kon [9]: 804000 M⁻¹ s⁻¹
B1: HJ153 (antibody, V domains shown)
VH: QVQLQQPGAELVKPGASVKLSCKASGYTFTSYWMHWVKQRPGRGLEWIGEIDPSDGFTYNNQNFKDKSTLTVDRSSGTAYLQLSSLTSEDSAVYYCAGSLGRIGLAYWGHGTLVTVSA
VL: QIVLTQSPAIMSASPGEKVTISCSASSSVTYMYWYQQKPGASPKSWIYRTSNLASGVPARFSGSGSGTSYSLTISSMEAEDAATYYCQQFQSYPLTFGAGTKLELKR
notes: murine monoclonal antibody from hybridoma; also called HJ153B (biotinylated)
